± gives the standard deviation of the averaged measurements.
B1: library; a variant is named by its letters at N, in order (parent)
chain: AATGTTGTTGATGCAACCATAAAGTGATATTTAATAATTATTTATAATCAGCAACTTAACCACAAAACAACCATATATTGATATNTCACAAAACAACCATAANTTGATATTTTTGTGAATCGAGTATTTCAGCAAAACTACTGCAGTAAGAA

What was measured:
[1] = variants of: B1; assay: relative integration efficiency (T-LR orientation) vs wild-type transposon end (log2 (normalized fold change)); transposon end mutated: left end; higher = more efficient transposition; conditions: with VchCAST RNA-guided transposition machinery (E. coli BL21(DE3) host, lacZ target)
Method: (§1)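 Pooled, barcoded VchCAST (Tn6677) mini-transposon donor libraries; each variable transposon-end sequence sits in a fixed pDonor mini-transposon context (10-bp barcode and cargo not included). Left- or right-end libraries were co-transformed with pEffector (TniQ-Cascade, TnsABC, lacZ crRNA, T7, 0.1 mM IPTG) into E. coli BL21(DE3) and grown 18 h at 37 C. T-LR and T-RL junction amplicons were sequenced; output/input barcode fold change was normalised to the mean of four wild-type barcodes and log2-transformed. Two biological replicates; zero-count/undetected variants carry floor values (-10 / -15), censored here. Barcode uncoupling by PCR recombination adds noise.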

[2] = variants of: B1; assay: relative integration efficiency (T-RL orientation) vs wild-type transposon end (log2 (normalized fold change)); transposon end mutated: left end; higher = more efficient transposition; conditions: with VchCAST RNA-guided transposition machinery (E. coli BL21(DE3) host, lacZ target)
Method: as §1

| Variant | relative integration efficiency (log2) [1] | relative integration efficiency (log2) [2] |
| --- | --- | --- |
| TA T76A A77G C87T A102T T111C T113C | -0.406 ± 0.13 | -0.659 ± 0.28 |
| TA A22T G24T T31C A33C T76A T78G C87A A96C T110A T113A | -0.606 ± 0.66 | -0.329 ± 0.25 |
| TA A23G G24T A33T A70C T76A T86G A102T T111C T113C | -0.846 ± 0.11 | -0.375 ± 0.19 |
| CG A15T | 0.37 ± 0.27 | -0.148 ± 0.14 |
| CG A15C | 0.321 ± 0.27 | 0.0839 ± 0.1 |
| CG A15G | -0.118 ± 0.26 | -0.121 ± 0.26 |
| TA A23G G24T A33T T76A A77G C87T A102T T111C T113C | -0.439 ± 0.39 | -0.836 ± 0.54 |
| TG A16C G24T T32G A33C T76A A77G C87T | -0.184 ± 0.15 | -0.603 ± 0.47 |
| CG A16C A70C A96C | -0.695 ± 0.11 | -0.475 ± 0.19 |
| CG A1T A2T | 0.429 ± 0.098 | 0.223 ± 0.059 |
| TA A16C G24T T32G A33C A70C T76A T84A C87A A96C T110A T113A | -0.499 ± 1.2 | -0.0812 ± 0.47 |
| TA G24A T30A T76A T78G C87A A102T T111C T113C | -0.298 ± 0.65 | 0.243 ± 0.089 |
| CG A15T A16T C17G C18G | -0.912 ± 0.078 | -0.824 ± 0.58 |
| CC A101T A102T T104A | -0.0376 ± 0.63 | -0.0794 ± 0.32 |
| TA A23G G24T A33T T76A T78A T84A C87A A102T T111C T113C | -0.26 ± 0.5 | 0.131 ± 0.23 |
| CG A15T A16T | -0.556 ± 0.6 | -0.219 ± 0.36 |
| CG A11C T12G | -1.34 ± 0.53 | -0.436 ± 0.26 |
| TA G24A T30A T76A A77G C87T A96C T110A T113A | 0.553 ± 0.26 | 0.0249 ± 0.25 |
| CG A2T | 0.355 ± 0.34 | -0.141 ± 0.054 |
| CG A2C | 0.61035 ± 0.00046 | -0.0562 ± 0.037 |

| Variant | relative integration efficiency (log2) [1] | relative integration efficiency (log2) [2] |
| --- | --- | --- |
| CG A2G | 0.28 ± 0.065 | 0.239 ± 0.039 |
| TA G24A T30A A70C T76A T84A C87A A96C T112G T113C | 0.302 ± 0.58 | 0.326 ± 0.17 |
| TA G24A T30A A70C T76A T86G A96C T110A T113A | 0.0588 ± 0.23 | -0.265 ± 0.38 |
| TG A16C G24T T30A T76A T78G C87A | -0.0456 ± 0.17 | 0.0194 ± 0.14 |
| TA A22T G24T T31C A33C T76A A77G C87T A102T T111C T113C | -0.361 ± 0.78 | -0.688 ± 0.55 |
| CA A96C T110A T113A | 0.444 ± 0.43 | 0.00902 ± 0.34 |
| TA T76A T78A T84A C87A T104G T113A | 0.188 ± 0.023 | -0.245 ± 0.21 |
| TA A22T G24T T31C A33C T76A T78A T84A C87A A96C T112G T113C | -0.159 ± 0.75 | -0.261 ± 0.33 |
| TA A22T G24T T31C A33C A70C T76A T84A C87A T104A T110A T113A | -0.378 ± 0.91 | -0.553 ± 0.35 |
| TA A16C G24T T32G A33C T76A T78G C87A A102T T111C T113C | -0.986 ± 0.79 | -0.362 ± 0.18 |
| TA A22T G24T T31C A33C A70C T76A T84A C87A A96C T112G T113C | -0.665 ± 0.33 | -0.334 ± 0.36 |
| TA T76A A77G C87T T104G T113A | 0.151 ± 0.33 | -0.605 ± 0.42 |
| CG A2C T3G G4T T5G | -0.014 ± 0.12 | -0.514 ± 0.095 |
| CG A11T T12A G13C C14G | -2.81 ± 1.2 | -0.558 ± 0.43 |
| TA G24A T30A T76A A77G C87T T104G T113A | 0.395 ± 0.079 | -0.232 ± 0.36 |
| CG A15C A69C A95C | -0.511 ± 0.34 | -0.731 ± 0.34 |
| TA A23G G24T A33T T76A A77G C87T A96C T110A T113A | -0.603 ± 0.67 | -0.516 ± 0.48 |
| TA T76A T78G C87A A102T T111C T113C | -0.0555 ± 0.34 | -0.0993 ± 0.033 |
| TA G24A T30A T76A T78A T84A C87A A102T T111C T113C | -0.493 ± 1.1 | -0.0919 ± 0.22 |
| TA T76A T78A T84A C87A T104A T110A T113A | 0.357 ± 0.48 | 0.0146 ± 0.17 |

| Variant | relative integration efficiency (log2) [1] | relative integration efficiency (log2) [2] |
| --- | --- | --- |
| TG A16C G24T T30A A70C T76A T86G | 0.235 ± 0.55 | 0.0267 ± 0.24 |
| CG A19C | -1.53 ± 1 | -1.49 ± 0.49 |
| CG A19G | -0.219 ± 0.077 | -0.352 ± 0.074 |
| CG A19T | -0.706 ± 1.6 | -0.267 ± 0.38 |
| CG A16T C17G | -0.34 ± 0.47 | -0.0955 ± 0.095 |
| CG A1C A2G T3C G4C T5G | -0.385 ± 0.32 | -0.219 ± 0.027 |
| CC T100A A101T A102T | -0.124 ± 0.68 | -0.77 ± 0.44 |
| CC A22T A23T T76A A77T A102T | -0.252 ± 0.23 | -0.313 ± 0.27 |
| TA A70C T76A T86G A96C T112G T113C | 0.367 ± 0.4 | -0.132 ± 0.23 |
| TA T76A T78A T84A C87A A96C T112G T113C | -0.207 ± 0.74 | 0.00846 ± 0.17 |
| TA G24A T30A T76A T78G C87A A96C T110A T113A | 0.291 ± 0.89 | 0.0775 ± 0.15 |
| TA G24A T30A A70C T76A T86G A102T T111C T113C | -0.456 ± 0.08 | -0.229 ± 0.18 |
| CG A15C A16C C17A C18A | -2.02 ± 1.9 | -1.89 ± 0.66 |
| CG A2C T3G | 0.286 ± 0.049 | -0.0688 ± 0.0099 |
| TA A16C G24T T32G A33C T76A A77G C87T A102T T111C T113C | -1.56 ± 0.58 | -1.11 ± 0.63 |
| TA A22T G24T T31C A33C T76A A77G C87T A96C T112G T113C | -0.0329 ± 0.84 | -0.66 ± 0.42 |
| CG A11C T12G G13T C14A | -1.55 ± 0.089 | -0.699 ± 0.47 |
| TA A23G G24T A33T A70C T76A T84A C87A A96C T110A T113A | 0.218 ± 0.46 | 0.00966 ± 0.38 |
